Positions count from the first letter of the chain named.
Key:
N332-GT2 NP (ferritin) = N332-GT2 NP (ferritin) (HIV-1 BG505 Env fused to Helicobacter …); assay: SPR; NP captured as ligand with PGT128 IgG, Fab flowed as analyte
[1] = molecular target: BG505 MD39 N332-GT2 trimer (HIV-1 BG505); assay: SPR, Fab and N332-GT2 trimer
[2] = molecular target: BG505 MD39 N332-GT2 trimer (HIV-1 BG505); assay: SPR
[3] = molecular target: BG505 MD39 N332-GT2 trimer (HIV-1 BG505); assay: SPR; reference 11mutB trimer
gp120-17mutE K137/P325 = assay: SPR
[4] = molecular target: gp120-17mutE K137/R139/M141/P325; assay: SPR
gp120-17mutE = assay: SPR
[5] = molecular target: gp120-17mutE K137/M141/P325; assay: SPR
gp120-17mutE K137/H325 = assay: SPR
[6] = molecular target: BG505 MD39 N332-GT2 trimer (HIV-1 BG505); assay: SPR; KD scatter plot
BG505 MD39 trimer [7] = molecular target: BG505 MD39 trimer (HIV-1 BG505); assay: ELISA on BG505-MD39, mAb titrated from about 0.001 to 50 µg/mL
BG505 MD39 trimer [8] = molecular target: BG505 MD39 trimer (HIV-1 BG505); assay: ELISA on BG505-MD39, BG18 as mAb titrated from about 0.001 to 50 µg/mL

B1: BG18 iGL0 Fab (Fab, V domains shown)
VH: QVQLQESGPGLVKPSGTLSLTCAVSGGSISSSNWWSWVRQPPGKGLEWIGEIYHSGSTNYNPSLKSRVTISVDKSKNQFSLKLSSVTAADTAVYYCARNAITIFGVVIIGEYYYYGMDVWGQGTTVTVSS
VL: not shown
- Kd (N332-GT2 NP (ferritin)): 3 nM
- Kd [1]: 4 nM

B2: BG18 iGL1 (antibody, V domains shown)
VH: B1 VH with I109L
VL: not shown
- Kd [2]: 0.213 nM
- fold improvement over 11mutB [3]: ~130000 fold
- Kd (gp120-17mutE K137/P325): 11 nM
- Kd [4]: 0.5 nM
- Kd (gp120-17mutE): ~14000 nM
- Kd [5]: 2.5 nM
- Kd (gp120-17mutE K137/H325): 5.9 nM

B3: BG18 iGL1 with alternate germline VL gene VL3-10 (antibody, V domains shown)
VH: B1 VH with I109L
VL: SYELTQPPSVSVSPGQTARITCSGDALPKKYAYWYQQKSGQAPVLVIYKDSKRPSGIPERFSGSSSGTMATLTISGAQVEDEDDYYCYSADYSGNHWVFGGGTKLTVL
- binding result [2]: binds

B4: pre4 (antibody, V domains shown)
VH: B1 VH with N99E, A100R, I101D, I108S, I109L, G110R, E111V
VL: not shown
- binding result [6]: no binding (tested: 100 µM)

B5: pre13 (antibody, V domains shown)
VH: B1 VH with R98K, N99A, A100L, I101N, I108T, I109L, G110T, E111Q
VL: not shown
- binding result [6]: no binding (tested: 100 µM)

B6: pre14 (antibody, V domains shown)
VH: B1 VH with N99G, A100R, I108T, I109L, G110R, E111G
VL: not shown
notes: also called NGS pre14; NGS Pre14
- Kd (N332-GT2 NP (ferritin)): 94 nM
- Kd [1]: 136 nM

B7: pre15 (antibody, V domains shown)
VH: B1 VH with N99D, A100I, I101H, T102N, I103S, I108S, I109L, G110D, E111Q, Y112N
VL: not shown
- binding result [6]: no binding (tested: 100 µM)

B8: BG18.6H BG18.11L (antibody, V domains shown)
VH: QVQLQESGPGLVKPSGTLSLTCAVSGDSRPSDHSWSWVRQPPGKGLEWIGEIYYSGSTNYNPSLKSRVTISVDKSKNQFSLKLSSVTAADTAVYYCARNAIRIYGVVALGEWFHYGMDVWGQGTTVTVSS
VL: SYELTQPPSVSVSPGQTARITCSGDALPSRYAYWYQQKPGQAPVLVISRDSQRSSGISGRFSGSWSGTTVTLTISGVQAEDEADYYCQSSDSSDTYKVFGGGTKLTVL
notes: also called less mutated variant of BG18
- EC50 (read off the curve) (BG505 MD39 trimer [7]): ~0.05 µg/mL

B9: BG18 Fab (Fab, V domains shown)
VH: QVQLRESGPGLVKPSETLSLSCTVSNDSRPSDHSWTWVRQSPGKALEWIGDIHYNGATTYNPSLRSRVRIELDQSIPRFSLKMTSMTAADTGMYYCARNAIRIYGVVALGEWFHYGMDVWGQGTAVTVSS
VL: SSELTQPPSVSVSPGQTARITCSGAPLTSRFTYWYRQKPGQAPVLIISRSSQRSSGWSGRFSASWSGTTVTLTIRGVQADDEADYYCQSSDTSDSYKMFGGGTKLTVL
notes: also called mature BG18; 354BG18
- EC50 (read off the curve) (BG505 MD39 trimer [8]): ~0.02 µg/mL

B10: BG18 iGL1 with alternate germline VL gene VL3-1 (antibody, V domains shown)
VH: B1 VH with I109L
VL: not shown
- binding result [2]: binds

B11: BG18 iGL1 with alternate germline VL gene VL2-8 (antibody, V domains shown)
VH: B1 VH with I109L
VL: QSALTQPPSASGSPGQSVTISCTGTSSDVGGYNYVSWYQQHPGKAPKLMIYEVSKRPSGVPDRFSGSKSGNTASLTVSGLQAEDEADYYCSSYAGSNNFWVFGGGTKLTVL
- binding result [2]: binds

B12: BG18 iGL1 with alternate germline VL gene VL3-19 (antibody, V domains shown)
VH: B1 VH with I109L
VL: SSELTQDPAVSVALGQTVRITCQGDSLRSYYASWYQQKPGQAPVLVIYGKNNRPSGIPDRFSGSSSGNTASLTITGAQAEDEADYYCNSRDSSGNHWVFGGGTKLTVL
- binding result [2]: binds
